As usually defined, the EC50 is the midpoint of the concentration-response curve.

Drawing on publication PMC4627693 (Chemistry & biology, 2014), this text covers EC50 for one molecule.

The target of the test is c-Src tyrosine kinase (recombinant) (UniProt P00523 1-533). Kind of test: cross-linking.

Where no end group is shown, it is not given here. The star is where a group is joined. Biotin = O=C1N[C@H]2[C@H](CS[C@H]2CCCCC(=O)*)N1; code Z = ethylene glycol unit

On to {Biotin-code Z-code Z}-ICGEFRRR [Cys-Srctide (Biotin-ZZICGEFRRR)], for which the EC50 was 63 µM.
